Where a name gives a salt, the structure may show the parent alone.
Assays:
Vero cells = assay type: cell-based; details: 48 h
Protocol: A non-cancer line of Vero cells was used to determine the cytotoxicity of the compound against mammalian cells. They were evaluated at a final DMSO concentration of 0.5%. The culture medium was MEM (Dutscher, Bernolsheim, France) supplemented with 10% fetal bovine serum (Fisher Scientific, Illkirch, France), 1X non-essential amino acids (Fisher Scientific, Illkirch, France), 100 U/mL, 100 µg/mL penicillin/streptomycin (Fisher Scientific, Illkirch, France), and 2 mM L-glutamine (Fisher Scientific, Illkirch, France) at 37 °C in a humidified 5% CO2 atmosphere. Vero cells (100 µL of 10^5 cells/mL per well) were plated in 96-well plates for 24 h then treated with 100 µL of compound dilutions (in duplicate) during 48 h. All molecules were tested from 5 nM to 50 µM. Each well was then examined under the microscope to detect any precipitate formation before the supernatant was removed by flicking the plate. A volume of 100 µL of 0.5 mg/mL in MEM from a stock solution at 5 mg/mL of PBS-dissolved MTT (3-(4,5-dimethylthiazol-2-yl)-2,5-diphenyltetrazolium bromide, Sigma Aldrich/Merck, Darmstadt, Germany) was then added to each well [20].
After incubation for 1 h at 37 °C and 5% CO2 the supernatant was removed and 100 µL of DMSO were added. Plates were gently shaken to dissolve formazan crystals resulting from the MTT reduction by living cells and read at 570 nm with the VICTOR Nivo plate reader (Perkin Elmer, Waltham, MA, USA). CC50 values were determined using GraphPad Prism 7 software (San Diego, CA, USA).

[1] = Homolysis kinetics of alkoxyamines by EPR (growth of nitroxide); assay type: physicochemical; details: mixture of diastereoisomers
Protocol: Preparation of alkoxyamines and reference samples. All reagents including anhydrous solvents used for the chemical synthesis were purchased from commercially available sources such as Merck, TCI, and Fluorochem, and were used without further purification. All air and/or water-sensitive reactions were carried out under an argon atmosphere with dry solvents using standard syringe-cannula/septa techniques. Routine monitoring of reactions was performed using Merck Silica gel 60 F254, aluminum-supported TLC plates; spots were visualized using UV light and ethanolic acidic para-anisaldehyde solution or ethanolic phosphomolybdic solution, followed by heating. Purifications by means of column chromatography were performed with Silica gel 60 (230–400 mesh). ^1H, ^13C, and ^19F NMR spectra were obtained in CDCl3, MeOD (with residual H2O), D2O, DMSO-d6, or C6D6 solutions on by using Bruker AC400 (400 MHz) and Bruker AC300 (300 MHz) spectrometers. High-resolution mass spectra (HRMS) have been performed using a SYNAPT G2 HDMS (Waters) mass spectrometer equipped with a pneumatically assisted atmospheric pressure ionization (API) source. The sample was ionized in positive electrospray mode under the following conditions: electrospray voltage: 2.8 kV; port voltage: 20 V; Nebulizing gas flow rate (nitrogen): 100 L/h or in negative electrospray mode under the following conditions: electrospray voltage: −2.27 kV; port voltage: −20 V; Nebulizing gas flow rate (nitrogen): 100 L/h. The mass spectra (MS) were obtained with a time-of-flight (TOF) analyzer. The exact mass measurements were carried out in triplicate with external calibration. Homolysis constants were measured by EPR on an EMX Bruker spectrometer from 10^−4 M samples in tertbutyl benzene or in a mixture of H2O-nPrOH (1:1; v:v).
Kinetic experiments. Kinetics of A1–A7 (Scheme 2) for series L and D are performed by monitoring the growth of nitroxide by Electron Paramagnetic Resonance (X-band EMX Bruker machine) in tert-butylbenzene and a water/n-PrOH (for a good solubility of the alkoxyamine) as solvents and using O2 as alkyl radical scavenger to suppress the back reaction (kc in Scheme 2) as already reported. Homolysis rate constants kd are given by Equation (1) ([nitroxide]∞ = [alkoxyamine]0 = 0.1 mM, see Table S1) and the subsequent activation energies Ea given by Equation (2). (1) lnnitroxide∞−nitroxidet/nitroxide∞=−kd·t, (2) Ea=−RTlnkd/A.

[2] = system: Schistosoma mansoni adult worms; assay: Viability of Schistosoma mansoni adult worms in vitro; assay type: cell-based, Schistosoma mansoni NMRI strain; details: 37 °C
Protocol: Experiments on the viability of Schistosoma mansoni adult worms. In vitro tests were performed on Schistosoma mansoni NMRI strains. This parasite is lab maintained on Biomphalaria glabrata (BRE strain) as intermediate mollusc host and Golden Hamster (Janvier Labs, Le Genest-Saint-Isle, France) as definitive vertebrate host. Methods, for molluscs’ and hamsters’ infection and for parasite recovery, were previously described. Adult worms were recovered by hepatic perfusion technique between 42 and 47 days post hamster exposition to parasite larvae. Worms were carefully collected and disposed in 12-well Falcon® plate containing 2 mL of RPMI 1640 (supplemented with L-glutamine and Hepes 25 mM). The plates containing a minimum of 15 worms by well were then placed in an incubator chamber at 37 °C and 5% CO2. The worms sex ratio was almost balanced in each well. The drug was first dissolved in DMSO (Sigma-Aldrich) to give a 100 mg/mL mother solution. Then the stock solution was complemented with Tween 80 and RPMI to obtain the following final ratio dilution: RPMI 1640/Tween 80/DMSO and 1000/0.95/3.8, v/v/v.
All molecules were tested at a final concentration of 100 µg/mL and 10 µg/mL. A negative control consisted in adding the same RPMI 1640/Tween 80/DMSO solution, but without any drug and a positive control consisted in adding praziquantel. All molecules and control were performed in duplicates of well. The worm viability was checked after 1, 2, 3, 4, 5, 6, 7, 8, 24, 48, and 72 h after adding the molecule.

[3] = Table S1, dose at 100 μg/ml, unit not given in Table S1 (h in Table 2)

Structure (SMILES): CC(ON1C(C)(C)CCCC1(C)C)c1ccc(NC(=O)[C@@H](Cc2ccccc2)NC(=O)[C@H](NC(=O)[C@H](N)Cc2ccccc2)C(C)C)cc1 (stereo partly drawn) [A4D, (2R)-1-(((2R)-3-methyl-1-oxo-1-(((2R)-1-oxo-3-phenyl-1-((4-(1-((2,2,6,6-tetramethylpiperidin-1-yl)oxy)ethyl)phenyl)amino)propan-2-yl)amino)butan-2-yl)amino)-1-oxo-3-phenylpropan-2-aminium trifluoroacetate]
- CC50 (Vero cells): 2600 ± 300 nM
- Homolysis rate constant kd ([1]; C–ON bond homolysis in water/n-PrOH v/v 1:1, EPR, 0.1 mM alkoxyamine, O2 as alkyl radical scavenger, T (°C): A1L 95.1, A3L 94.5, A4L 94.6, A5L 94.0, A6L 94.8, A7L 94.3, A1D 93.5, A3D 92.6, A4D 95.0, A5D 94.6): 1.2 10^−4 s^−1
- Activation energy Ea ([1]; in water/n-PrOH v/v 1:1, by Equation (2) from kd and T, A = 2.4 10^14 s^−1): 30.81 kcal/mol
- time to kill all parasites [2, 3]: 7
- time to reach the death of half of the population of worms [2, 3]: 2
- Activity/toxicity towards schistosomes (in words) ([2]; adult worms, 100 μg/mL): toxic to schistosomes

From paper PMC11206678, “Peptide-Alkoxyamine Drugs: An Innovative Approach to Fight Schistosomiasis: “Digging Their Graves with Their Forks”” (Pathogens, 2024)
